We go through one molecule from article PMC8225741, “Tumor-derived neomorphic mutations in ASXL1 impairs the BAP1-ASXL1-FOXK1/K2 transcription network” (Protein & Cell, 2020).

The assay has as its target T1, SBP-tagged ASXL1^450–1,300 (human, UniProt Q8IXJ9 450-1300).
T1 construct: ASXL1, human, residues 450–1,300; cDNAs encoding SBP and ASXL1 450-1,300 cloned into pRK7-N-Flag; also called ASXL1 (residues 450–1,300); ASXL^450–1,300; source: HEK293T, overexpressed, immobilized to Streptavidin beads
T1 sequence (looked up): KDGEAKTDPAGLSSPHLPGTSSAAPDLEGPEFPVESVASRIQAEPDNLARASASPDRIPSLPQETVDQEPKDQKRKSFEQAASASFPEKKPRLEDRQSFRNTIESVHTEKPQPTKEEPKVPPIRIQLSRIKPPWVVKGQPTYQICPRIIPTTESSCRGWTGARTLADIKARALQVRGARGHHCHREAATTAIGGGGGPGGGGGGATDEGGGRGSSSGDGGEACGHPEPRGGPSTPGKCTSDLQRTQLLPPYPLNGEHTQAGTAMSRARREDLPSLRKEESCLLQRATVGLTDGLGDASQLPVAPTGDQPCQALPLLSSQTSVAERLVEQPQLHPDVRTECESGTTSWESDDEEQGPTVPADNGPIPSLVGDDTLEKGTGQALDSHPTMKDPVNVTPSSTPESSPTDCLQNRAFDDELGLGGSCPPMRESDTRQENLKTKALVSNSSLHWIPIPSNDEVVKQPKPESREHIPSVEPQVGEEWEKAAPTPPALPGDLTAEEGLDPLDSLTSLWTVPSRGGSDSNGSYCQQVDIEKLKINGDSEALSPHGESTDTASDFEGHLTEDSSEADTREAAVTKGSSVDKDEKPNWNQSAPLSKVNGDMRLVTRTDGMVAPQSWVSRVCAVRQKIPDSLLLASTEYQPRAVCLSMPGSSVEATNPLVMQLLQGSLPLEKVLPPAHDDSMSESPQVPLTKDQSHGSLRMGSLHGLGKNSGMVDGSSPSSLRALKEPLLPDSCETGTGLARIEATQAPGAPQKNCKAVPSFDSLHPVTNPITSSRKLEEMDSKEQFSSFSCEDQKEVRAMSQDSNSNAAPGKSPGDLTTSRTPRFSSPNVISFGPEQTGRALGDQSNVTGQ
Nature of the assay: pull-down; SBP-tagged ASXL1^450–1,300 immobilized to Streptavidin beads, incubated with Flag-peptide-eluted FOXK1 at 4 °C for 3 h, washed 3 times, SDS-PAGE and Coomassie blue staining. Conditions: both partners purified.

B1: Flag-tagged full-length FOXK1 protein (natural protein, human, UniProt P85037 1-733, looked up)
chain: MAEVGEDSGARALLALRSAPCSPVLCAAAAAAAFPAAAPPPAPAQPQPPPGPPPPPPPPLPPGAIAGAGSSGGSSGVSGDSAVAGAAPALVAAAAASVRQSPGPALARLEGREFEFLMRQPSVTIGRNSSQGSVDLSMGLSSFISRRHLQLSFQEPHFYLRCLGKNGVFVDGAFQRRGAPALQLPKQCTFRFPSTAIKIQFTSLYHKEEAPASPLRPLYPQISPLKIHIPEPDLRSMVSPVPSPTGTISVPNSCPASPRGAGSSSYRFVQNVTSDLQLAAEFAAKAASEQQADTSGGDSPKDESKPPFSYAQLIVQAISSAQDRQLTLSGIYAHITKHYPYYRTADKGWQNSIRHNLSLNRYFIKVPRSQEEPGKGSFWRIDPASEAKLVEQAFRKRRQRGVSCFRTPFGPLSSRSAPASPTHPGLMSPRSGGLQTPECLSREGSPIPHDPEFGSKLASVPEYRYSQSAPGSPVSAQPVIMAVPPRPSSLVAKPVAYMPASIVTSQQPAGHAIHVVQQAPTVTMVRVVTTSANSANGYILTSQGAAGGSHDAAGAAVLDLGSEARGLEEKPTIAFATIPAAGGVIQTVASQMAPGVPGHTVTILQPATPVTLGQHHLPVRAVTQNGKHAVPTNSLAGNAYALTSPLQLLATQASSSAPVVVTRVCEVGPKEPAAAVAATATTTPATATTASASASSTGEPEVKRSRVEEPSGAVTTPAGVIAAAGPQGPGTGE
notes: FOXK1, human, full-length cDNA; Vector pRK7-N-Flag; source: HEK293T, overexpressed, purified by immunoprecipitation and eluted by Flag peptide; not shown: Flag, N-terminal, kept
In the case of B1, the binding result was “binds”.
